Measurements from patent US20240425612A1 (published 2024).

What was measured:
[1] = biological target: hFcγRIIIa-158V-streptavidin-His (human, UniProt P08637 17-208); assay: BLI
[2] = biological target: hFcγRIIIa-158F-streptavidin-His (human, UniProt P08637 17-208); assay: BLI
Sequence of hFcγRIIIa-158F-streptavidin-His (P08637 17-208): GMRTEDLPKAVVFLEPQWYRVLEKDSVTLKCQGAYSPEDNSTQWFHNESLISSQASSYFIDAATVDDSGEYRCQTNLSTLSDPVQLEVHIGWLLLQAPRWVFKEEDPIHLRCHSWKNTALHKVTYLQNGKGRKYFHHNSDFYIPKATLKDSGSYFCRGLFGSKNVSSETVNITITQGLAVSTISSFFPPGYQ

Sequence of hFcγRIIIa-158V-streptavidin-His (P08637 17-208 F176V): as the sequence (P08637 17-208) above, with F160V counted along it

Row | Binder | Kd [1] [nM] | Kd [2] [nM]
1 | Trastuzumab-MFc2 (antibody) Fc: DKTHTCPPCPAPELPGGPSVFLFPPKPKDTLMISRTPEITCVVVDVSHEDPEVKFNWYVDGVEVHNAKTKPREEQYNSTYRVVSVLTVLHRDWLNGKEYKCKVSNKALPAPEEKTISKAKGQPREPQVYTLPPSRDELTKNQVSLTCLVKGFYPSDIVVEWESNGQPENNYKTTPPVLDSDGSFFLYSKLTVDKSRWQQGNVFSCSVLHEALHNHYTQKSLSLSPGK | 63.9 | 56.8
2 | Trastuzumab-MFc3 (antibody) Fc: DKTHTCPPCPAPELLGGPDVFLFPPKPKDTLMISRTPEVTCVVVDVSLEDPEVKFNWYVDGVEVHNAKTKPREEQYNSTYRVVSVLTVLHRDWLNGKEYKCKVSNKALPVPEEKTISKAKGQPREPQVYTLPPSRDELTKNQVSLTCLVKGFYPSDIAVEWESNGQPENNYKTTPPVLDSDGSFFLYSKLTVDKSRWQQGNVFSCSVLHEALHNHYTQKSLSLSPGK | 32.4 | 38.5
3 | Trastuzumab-MFc6 (antibody) Fc: DKTHTCPPCPAPELPGGPDVFLFPPKPKDTLMISRTPEVTCVVVDVSHEYPEVKFNWYVDGVEVHNAKTKPREEQYNGTYRVVSVLTVLHRDWLNGKEYKCKVSNKALPAPEEKTISKAKGQPREPQVYTLPPSRGELTKNQVSLTCLVKGFYPSDIAVEWESNGQPENNYKTTPPVLDSDGSFFLYSKLTVDKSRWQQGNVFSCSVLHEALHNHYTQKSLSLSPGK | 28.9 | 29.9
4 | Trastuzumab-MFc5 (antibody) Fc: DKTHTCPPCPAPELLGGPDVFLFPPKPMDTLMISRTPEVTCVVVDVSLEDPEVKFNWYVDGVEVHNAKTKPREEQYNSTYRVVSVLTVEHMDWLNGKEYKCKVSNKALPVPEEKTISKAKGQPREPQVYTLPPSRDELTKNQVSLTCLVKGFYPSDIAVEWESNGQPENNYKTTPPVLDSDGSFFLYSKLTVDKSRWQQGNVFSCSVLHEALHNHYTQKSLSLSPGK | 85 | 75.6
